Source: paper PMC7411133, “Phosphorylations of the Abutilon Mosaic Virus Movement Protein Affect Its Self-Interaction, Symptom Development, Viral DNA Accumulation, and Host Range” (Frontiers in Plant Science, 2020)
Entries after “also recorded” stand apart in the source; their conditions may differ.

Assays:
[1] = molecular target: AbMV movement protein (MP; BC1) (UniProt P21946); test: acceptor photobleaching FRET, tag layout NC; conditions: sites T221,S223,S250
[2] = molecular target: the molecule itself; test: FRET or BRET; acceptor photobleaching FRET in living N. benthamiana leaf epidermal cells, 3 dpai; acceptor mVenus, donor mTurquoise2; four layouts (NN, NC, CN, CC); without and with local AbMV (DNA-A + DNA-BΔMP) infection; ROIs along the plasma membrane; p19 co-infiltrated

Molecule | other: mean FRET efficiency ([1]; reference: MPAAA with MPAAA) | other: mean FRET efficiency ([1]; reference: MPWT with MPWT) | mean FRET efficiency (layout NC, with AbMV) [2] | mean FRET efficiency (layout NC, without AbMV) [2]
AbMV movement protein (MP; BC1) (from UniProt P21946) MPDDD with MPDDD | weaker; reference 50; also recorded: weaker; reference 42 | same; reference 28 | – | –
AbMV movement protein (MP; BC1) (from UniProt P21946) MPAAA with MPAAA | – | stronger; reference 36; also recorded: stronger; reference 28 | – | –
AbMV movement protein, full-length, T221A/S223A/S250A (MP^AAA), fused to mVenus or mTurquoise2 (natural protein, Abutilon mosaic virus, UniProt P21946 1-293, looked up, Movement protein (MP; BC1) of Abutilon mosaic virus, full-length; Two copies expressed from one T-DNA (pFRETtv-2-in-1), one with mVenus and one with mTurquoise2, in four layouts (NN, NC, CN, CC); each copy carries one fluorescent protein at one end; also called mVenus::MP^AAA; MP^AAA::mVenus; source: N. benthamiana leaf epidermis, transiently expressed after agro-infiltration, in living cells; …) MDSQLVNPPNAFNYIESHRDEYQLSHDLTEIILQFPSTAAQLTARLSRSCMKIDHCVIEYRQQVPINATGSVIVEIHDKRMTDNESLQASWTFPIRCNIDLHYFSASFFSLKDPIPWKLYYKVCDTNVHQRTHFAKFKGKLKLSTAKHSVDIPFRAPTVRILSKQFSEKDVDFSHVDYGKWERKPIRCASMSRIGLRGPIEIRPGESWASRSTIGTAQPDADAEMENELHPYRHLNRLGTSLLDPGESAAIVGDQRAEPNITMSMGQLNELVRTAVQECVNSNCQASQAKSLK | – | – | 42% | 50%
AbMV movement protein, full-length, wild type (MP^WT), fused to mVenus or mTurquoise2 (natural protein, Movement protein (MP; BC1) of Abutilon mosaic virus, full-length; Two copies expressed from one T-DNA (pFRETtv-2-in-1), one with mVenus and one with mTurquoise2, in four layouts (NN, NC, CN, CC); each copy carries one fluorescent protein at one end; also called BC1; mVenus::MP^WT; source: N. benthamiana leaf epidermis, transiently expressed after agro-infiltration, in living cells; not shown: …) MDSQLVNPPNAFNYIESHRDEYQLSHDLTEIILQFPSTAAQLTARLSRSCMKIDHCVIEYRQQVPINATGSVIVEIHDKRMTDNESLQASWTFPIRCNIDLHYFSASFFSLKDPIPWKLYYKVCDTNVHQRTHFAKFKGKLKLSTAKHSVDIPFRAPTVRILSKQFSEKDVDFSHVDYGKWERKPIRCASMSRIGLRGPIEIRPGESWASRSTIGTAQPDTDSEMENELHPYRHLNRLGTSLLDPGESASIVGDQRAEPNITMSMGQLNELVRTAVQECVNSNCQASQAKSLK | – | – | 28% | 36%
AbMV movement protein, full-length, T221D/S223D/S250D (MP^DDD), fused to mVenus or mTurquoise2 (natural protein, Abutilon mosaic virus, UniProt P21946 1-293, looked up, Movement protein (MP; BC1) of Abutilon mosaic virus, full-length; Two copies expressed from one T-DNA (pFRETtv-2-in-1), one with mVenus and one with mTurquoise2, in four layouts (NN, NC, CN, CC); each copy carries one fluorescent protein at one end; also called mVenus::MP^DDD; MP^DDD::mVenus; source: N. benthamiana leaf epidermis, transiently expressed after agro-infiltration, in living cells; …) MDSQLVNPPNAFNYIESHRDEYQLSHDLTEIILQFPSTAAQLTARLSRSCMKIDHCVIEYRQQVPINATGSVIVEIHDKRMTDNESLQASWTFPIRCNIDLHYFSASFFSLKDPIPWKLYYKVCDTNVHQRTHFAKFKGKLKLSTAKHSVDIPFRAPTVRILSKQFSEKDVDFSHVDYGKWERKPIRCASMSRIGLRGPIEIRPGESWASRSTIGTAQPDDDDEMENELHPYRHLNRLGTSLLDPGESADIVGDQRAEPNITMSMGQLNELVRTAVQECVNSNCQASQAKSLK | – | – | 30% | 14%
